# Measured values as given in article PMC2668204 (Cellular signalling, 2009).
# Target: venus-labeled Gβγ dimers (venus155–239-Gβ1 with venus1–155-Gγ2) (human, UniProt P62873 1-340; P59768 1-71)
# Test: FRET or BRET
protein,measurement,value
"masGRK3ct-Rluc8 (domain or fragment, myristoylation directed by the N-terminal mas peptide) MGSSKSKTSNSGIKLLDCDQELYKNFPLVISERWQQEVAETVYEAVNADTDKIEARKRAKNKQLGHEEDYALGRDCIVHGYMLKLGNPFLTQWQRRYFYLFPNRLEWRGEGESRQSLLTMEQIVSVEETQIKDKKCILLRIKGGKQFVLQCESDPEFVQWKKELTETFMEAQRLLRRAPKFLNKSRSAVVELSKPPLCHRNSNGL",adenosine-induced BRET increase (highest relative expression of C-TM-Gα i1),0.025 ± 0.003
same,adenosine-induced BRET increase (lowest relative expression of C-TM-Gα i1),0.05 ± 0.007
